Experimental data taken from paper PMC7347513 (Cancer Immunology, Immunotherapy : CII, 2020).
Positions count from the first letter of the chain named.

What was measured:
[1] = molecular target: T1, HLA B*0702 presenting HCMV pp65 peptide … on cells (Homo sapiens HLA-B*07:02/B2M; HCMV pp65 …, strain); assay: flow cytometry on cells; conditions: one partner purified
T1 construct: copies: + +

[2] = molecular target: T2, biotinylated HLA B*0702/HCMV pp65 peptide … complex (Homo sapiens HLA-B*07:02/B2M; HCMV pp65 …, strain, biotin (in vivo, BirA, AviTag)); assay: ELISA; conditions: both partners purified
T2 construct: copies: + +

[3] = molecular target: T3, biotinylated HLA B*0801/HCMV IE1 peptide … complex (Homo sapiens HLA-B*08:01 and B2M; HCMV …, strain, biotin (in vivo, BirA, AviTag)); assay: ELISA; conditions: both partners purified
T3 construct: copies: + +

[4] = molecular target: T4, biotinylated HLA A*0201/HCMV pp65 peptide […] complex (human HLA-A*02:01 and B2M; HCMV pp65 …, strain, biotin (in vivo, BirA, AviTag)); assay: ELISA; conditions: both partners purified
T4 construct: copies: + +

[5] = molecular target: T5, HLA A*2402 presenting HCMV pp65 peptide … on cells (Homo sapiens HLA-A*24:02/B2M; HCMV pp65 …, strain); assay: flow cytometry on cells; conditions: one partner purified
T5 construct: copies: + +

[6] = molecular target: T6, biotinylated HLA A*2402/HCMV pp65 peptide … complex (Homo sapiens HLA-A*24:02/B2M; HCMV pp65 …, strain, biotin (in vivo, BirA, AviTag)); assay: ELISA; conditions: both partners purified
T6 construct: copies: + +

[7] = molecular target: T7, biotinylated HLA B*3501/HCMV pp65 peptide … complex (Homo sapiens HLA-B*35:01 and B2M; HCMV …, strain, biotin (in vivo, BirA, AviTag)); assay: ELISA; conditions: both partners purified
T7 construct: copies: + +

[8] = molecular target: T8, HLA B*3501 presenting HCMV pp65 peptide … on cells (Homo sapiens HLA-B*35:01 and B2M on …, strain); assay: flow cytometry on cells; conditions: one partner purified
T8 construct: copies: + +

[9] = molecular target: T9, HLA A*0201 on MRC-5 cells loaded with control peptide 13 (…, Trypanosoma cruzi KMP-11) (human HLA-A*02:01 and B2M; Trypanosoma …, strain); assay: flow cytometry on cells; conditions: one partner purified
T9 construct: copies: + +

[10] = molecular target: T10, HLA A*0201 presenting the HCMV pp65 peptide […], on cells (human HLA-A*02:01 and B2M; HCMV pp65 …, strain); assay: flow cytometry on cells; conditions: one partner purified
T10 construct: copies: + +

[11] = molecular target: T11, biotinylated HLA A*0101/HCMV pp65 peptide […] complex (human HLA-A*01:01 and B2M; HCMV pp65 …, strain, biotin (in vivo, BirA, AviTag)); assay: ELISA; conditions: both partners purified
T11 construct: copies: + +

B1: biotinylated Fab D10 (Fab, V domains shown)
VH: EVQLVQSGGGVVQPGRSLRLSCAASGFTFSSYGMHWVRQAPGKGLEWVAVISYDGTNTDYADSVKGRFTISRDNSKNTLYLQMNSLRAEDTAVYYCARARGIGVSGTLYFDFWGQGTLVTVSS
VL: EIVMTQSPGTLSLSPGERATLSCRASQSVSSSYLAWYQQKPGQAPRLLIYGASTRATGIPDRFSGSGSGTDFTLTINRLEPEDFAVYYCQQYGSSPGTFGQGTRLEIK
notes: source: E. coli TG1, biotinylated in vivo, purified (IMAC, Talon beads)
**Q.** Does B1 bind [1]?
**A.** Result: binds

B2: Fab D10 (Fab, V domains shown)
VH: B1 VH
VL: B1 VL
notes: source: E. coli TG1, purified (IMAC, Talon beads)
**Q.** Does B2 bind [2]?
**A.** Result: binds

B3: Fab 2A2 (Fab, V domains shown)
VH: QVQLVQSGAEVKKPGASVKVSCKASGYTFTDYYVHWVRQAPGQGLEWMGRINPNSGGTNYAQKFQGRVTMTRDASISTAYMELSRLRSDDTAVYYCAREMGYGGKSEDYWGQGTLVTVSS
VL: SYVLTQPPSLSVAPGKTARIICGGNNIGSKSVHWYQQKPGQPPVLVVHDDGDRPSGIPERFSGSNSGITATLTITGVEAGDEADYYCQVWDYSSDHVIFGGGTKLTVL
notes: as for B2
**Q.** Does B3 bind [3]?
**A.** Result: binds

B4: Fab A11 (Fab, V domains shown)
VH: EVQLVQSGAEVKRPGASVKVSCKASGYTFTSYGIGWVRQAPGQGLEWMGWISAYSGNTNYAQNFQGRITMTTDTSTSTAYMELRSLRSDDTAVYYCARDFGKWDLPMYGMDVWGQGTTVTVSS
VL: QSVLTQPPSVSVAPGGTARISCGGNNIGTKNVHWYQQKPGQAPVLVMYYNSDRPAGIPERFSGSNSGNTATLTITRVEPGDEADYYCQVWDDRRDHYVFGTGTEVTVL
notes: as for B2
**Q.** Does B4 bind [4]?
**A.** Result: binds

B5: Fab A9 (Fab, V domains shown)
VH: B4 VH with K12R, R13N, Y32H, G35N, V37L, F64L, G66D, I68V, T69S
VL: QSVLTQPPSVSAAPGQRVTISCSGSSSDIGKSGKNYVAWYQQLPGMAPKLLIHDTIKRPSGIPDRFSASKSGTSATLDITGLQTGDEGDYYCGTWNNNLSAYVFGTGTTITVL
notes: as for B2
**Q.** Does B5 bind [4]?
**A.** Result: binds

B6: biotinylated Fab C12.2 (Fab, V domains shown)
VH: QITLKESGPTLVKPTQTLTLTCTFSGFSLSTSGVAVGWIRQPPGKALEWLALIYWDDDKHYSPSLKNRLTITKDTSKNQVVLTLTNMDPVDTATYYCARMTYSGSWYSFYYFDYWGQGTLVTVSS
VL: EIVLTQSPATLSFSPGERATLSCRASQSVGSYLAWYQQRPGQAPRPLIYDATNRATGIPTRFSGSGSGTDFTLTISSLEPEDFATYYCQHRRTFGRGTKLEIK
notes: as for B1
**Q.** Does B6 bind [5]?
**A.** Result: binds

B7: Fab C12/2 (Fab, V domains shown)
VH: B6 VH
VL: B6 VL
**Q.** Does B7 bind [6]?
**A.** Result: binds

B8: Fab C5 (Fab, V domains shown)
VH: EVQLVQSGAEVKRPGASVKVSCKASGYTFTNYDINWVRQATGQGLEWMGWMNPNSGNTGYAQKFQGRVTITADKSTSTAYMELSSLRSEDTAVYYCARQGRLRFLEWYMFDPWGQGTLVTVSS
VL: DVVMTQSPLSLPVTPGEPASISCRSSQSLLHSNGYNYLDWYLQKPGQSPQLLIYLGSIRASGVPDRVTGSGSGTDFTLQISRVEAEDVGVYYCMQGLQTPYTFGQGTKLEIK
notes: as for B2
**Q.** Does B8 bind [7]?
**A.** Result: binds

B9: biotinylated Fab C5 (Fab, V domains shown)
VH: B8 VH
VL: B8 VL
notes: as for B1
**Q.** Does B9 bind [8]?
**A.** Result: binds

B10: biotinylated Fab C7 (Fab, V domains shown)
VH: EVQLVQSGAEVKKPGASVKVSCKASGYTFTSYYMHWVRQAPGQGLEWMGIINPSDGSTSYAQKFQGRVTMTRDTSTSTAYMELSSLRSEDTAVYYCARYIGIMDVWGQGTTVTVSS
VL: not shown
notes: as for B1
**Q.** Does B10 bind [1]?
**A.** Result: binds

B11: Fab C7 (Fab, V domains shown)
VH: B10 VH
VL: not shown
notes: as for B2
**Q.** Does B11 bind [2]?
**A.** Result: binds

B12: Fab C7 tetramer (Fab, V domains shown)
VH: B10 VH
VL: not shown
notes: copies: 4 + 4
**Q.** Does B12 bind [1]?
**A.** Result: binds

B13: C1-ETA´ immunotoxin (HLA A*0201-restricted, HCMV-specific Fab antibody C1 coupled to Pseudomonas Exotoxin A) (Fab, V domains shown)
VH: EVQLVQSGAEVKKPGSSVKVSCKASGGTFSSYAISWVRQAPGQGLEWMGGIIPIFGTANYAQKFQGRVTITADESTSTAYMELSSLRSEDTAVYYCARGLAAPDYFDYWGQGTLVTVSS
VL: QSVVTQPPSVSGAPGQRVTISCTGSSSNIGAGYDVHWYQQLPGTAPKLLIYGNSNRPSGVPDRFSGSKSGTSASLAITGLQAEDEADYYCQSYDSSLSGPFYVFGTGTKVTVL
notes: source: E. coli TG1
**Q.** Does B13 bind [9]?
**A.** Result: no binding (tested: 50 µg/ml)

**Q.** Does B13 bind [10]?
**A.** Result: binds

B14: Fab C1 (Fab, V domains shown)
VH: B13 VH
VL: B13 VL
notes: as for B2
**Q.** Does B14 bind [4]?
**A.** Result: binds

B15: Fab F3 (Fab, V domains shown)
VH: QVQLVQSGAEVKKPGASVKVSCKASGYTFTSYYMHWVRQAPGQGLEWMGIINPSGGSTSYAQKFQGRVTMTRDTSTSTVYMELSSLRSEDTAVYYCASGITGAHDYWGQGTLVTVSS
VL: B13 VL with G52E, N55I, S72A, D87E, S95N, F101N, Y102W, T106G, V110L
notes: as for B2
**Q.** Does B15 bind [11]?
**A.** Result: binds

B16: Fab A6 (Fab, V domains shown)
VH: EVQLVQSGAEVKKPGASVKVSCKASGYTFTSYYMHWVRQSPGQGLEWMGIINPSGGSTSYAQKFQGRVTMTRDTSTSTVYMELSSLRSEDTAVYYCARNGYCSSTSCYDAFDIWGQGTMVTVSS
VL: QSALTQPASVSGSPGQSITISCTGTSSDVGGYNYVSWYQQHPGKAPKVLIYDVNQRISGVPDRFSGSKSGNTASLTISGLQAEDEADYYCCSYAGSSSWVFGGGTRLTVL
notes: as for B2
**Q.** Does B16 bind [11]?
**A.** Result: binds
